Assay [1] concerns the target Syntaxin-3 (endogenous, INS-1 832/13 cells) (rat (endogenous in INS-1 832/13)) (UniProt Q08849). In words: co-IP; IP with 2 μg Syn-3 or Syn-1A antibody from 1 mg INS-1 832/13 lysate; cells at basal 0.8 mM glucose or stimulated with 16.7 mM glucose plus 10 nM GLP-1 for 30 min; blots quantified as percent recovery of total lysate input.
For assay [2], the target named is Syntaxin-1A (endogenous, INS-1 832/13 cells) (rat (endogenous in INS-1 832/13)) (UniProt P32851). The assay is described as above.
Syntaxin-1A (endogenous, INS-1 832/13 cells) (rat (endogenous in INS-1 832/13)), sequence (P32851 whole entry, the tested form may be a part): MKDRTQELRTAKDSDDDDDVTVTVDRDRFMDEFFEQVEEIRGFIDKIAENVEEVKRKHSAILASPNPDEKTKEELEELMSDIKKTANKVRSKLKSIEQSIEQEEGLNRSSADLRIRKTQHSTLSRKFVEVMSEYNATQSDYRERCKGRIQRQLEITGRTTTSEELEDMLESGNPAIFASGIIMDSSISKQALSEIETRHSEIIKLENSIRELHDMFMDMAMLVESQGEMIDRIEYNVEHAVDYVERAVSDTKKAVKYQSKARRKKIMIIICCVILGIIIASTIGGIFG
Assay [3] concerns the target GST-Syn-3 (cytoplasmic domain a.a. 1–263) (UniProt Q08849). Briefly: pull-down; GST-Syn-1A (1-265) or GST-Syn-3 (1-263) on glutathione agarose beads incubated with lysate of HEK293 cells transfected with Cav1.3 or Cav2.3, 4°C, 2 h; washed with 20 mM HEPES pH 7.4, 150 mM KOAc, 1 mM EDTA, 1 mM MgCl2, 5% glycerol, 0.1% Triton X-100; blots quantified as percent recovery.
Assay [4] concerns the target GST-Syn-1A (cytoplasmic domain a.a. 1–265) (UniProt P32851). Described as above.
The target of assay [5] is Syn-1A expressed in HEK293 cells (UniProt P32851). Briefly: co-IP; HEK293 cells co-transfected with Cav1.3 or Cav2.3 and Syn-1A or Syn-3; IP with anti-Syn-1A or anti-Syn-3 antibody; blots quantified as percent recovery of total lysate input.
Syn-1A expressed in HEK293 cells, sequence (P32851 whole entry): as the sequence (P32851 whole entry, the tested form may be a part) above
Assay [6] concerns the target Syn-3 expressed in HEK293 cells (UniProt Q08849). The description is as above.

Syntaxin-3 (endogenous, INS-1 832/13 cells) (rat (endogenous in INS-1 832/13)), sequence (Q08849 whole entry): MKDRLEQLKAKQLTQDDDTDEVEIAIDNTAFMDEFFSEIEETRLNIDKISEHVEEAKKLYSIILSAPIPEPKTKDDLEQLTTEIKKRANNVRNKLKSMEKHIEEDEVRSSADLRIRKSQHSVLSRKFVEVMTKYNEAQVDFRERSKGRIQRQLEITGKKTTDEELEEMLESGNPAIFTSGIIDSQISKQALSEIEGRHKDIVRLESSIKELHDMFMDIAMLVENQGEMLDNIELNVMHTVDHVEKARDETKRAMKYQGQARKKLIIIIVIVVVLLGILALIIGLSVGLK
Cav1.3 alpha1 pore-forming subunit (endogenous, INS-1 832/13 cells), P27732 1-2203 (natural protein), sequence (P27732 whole entry): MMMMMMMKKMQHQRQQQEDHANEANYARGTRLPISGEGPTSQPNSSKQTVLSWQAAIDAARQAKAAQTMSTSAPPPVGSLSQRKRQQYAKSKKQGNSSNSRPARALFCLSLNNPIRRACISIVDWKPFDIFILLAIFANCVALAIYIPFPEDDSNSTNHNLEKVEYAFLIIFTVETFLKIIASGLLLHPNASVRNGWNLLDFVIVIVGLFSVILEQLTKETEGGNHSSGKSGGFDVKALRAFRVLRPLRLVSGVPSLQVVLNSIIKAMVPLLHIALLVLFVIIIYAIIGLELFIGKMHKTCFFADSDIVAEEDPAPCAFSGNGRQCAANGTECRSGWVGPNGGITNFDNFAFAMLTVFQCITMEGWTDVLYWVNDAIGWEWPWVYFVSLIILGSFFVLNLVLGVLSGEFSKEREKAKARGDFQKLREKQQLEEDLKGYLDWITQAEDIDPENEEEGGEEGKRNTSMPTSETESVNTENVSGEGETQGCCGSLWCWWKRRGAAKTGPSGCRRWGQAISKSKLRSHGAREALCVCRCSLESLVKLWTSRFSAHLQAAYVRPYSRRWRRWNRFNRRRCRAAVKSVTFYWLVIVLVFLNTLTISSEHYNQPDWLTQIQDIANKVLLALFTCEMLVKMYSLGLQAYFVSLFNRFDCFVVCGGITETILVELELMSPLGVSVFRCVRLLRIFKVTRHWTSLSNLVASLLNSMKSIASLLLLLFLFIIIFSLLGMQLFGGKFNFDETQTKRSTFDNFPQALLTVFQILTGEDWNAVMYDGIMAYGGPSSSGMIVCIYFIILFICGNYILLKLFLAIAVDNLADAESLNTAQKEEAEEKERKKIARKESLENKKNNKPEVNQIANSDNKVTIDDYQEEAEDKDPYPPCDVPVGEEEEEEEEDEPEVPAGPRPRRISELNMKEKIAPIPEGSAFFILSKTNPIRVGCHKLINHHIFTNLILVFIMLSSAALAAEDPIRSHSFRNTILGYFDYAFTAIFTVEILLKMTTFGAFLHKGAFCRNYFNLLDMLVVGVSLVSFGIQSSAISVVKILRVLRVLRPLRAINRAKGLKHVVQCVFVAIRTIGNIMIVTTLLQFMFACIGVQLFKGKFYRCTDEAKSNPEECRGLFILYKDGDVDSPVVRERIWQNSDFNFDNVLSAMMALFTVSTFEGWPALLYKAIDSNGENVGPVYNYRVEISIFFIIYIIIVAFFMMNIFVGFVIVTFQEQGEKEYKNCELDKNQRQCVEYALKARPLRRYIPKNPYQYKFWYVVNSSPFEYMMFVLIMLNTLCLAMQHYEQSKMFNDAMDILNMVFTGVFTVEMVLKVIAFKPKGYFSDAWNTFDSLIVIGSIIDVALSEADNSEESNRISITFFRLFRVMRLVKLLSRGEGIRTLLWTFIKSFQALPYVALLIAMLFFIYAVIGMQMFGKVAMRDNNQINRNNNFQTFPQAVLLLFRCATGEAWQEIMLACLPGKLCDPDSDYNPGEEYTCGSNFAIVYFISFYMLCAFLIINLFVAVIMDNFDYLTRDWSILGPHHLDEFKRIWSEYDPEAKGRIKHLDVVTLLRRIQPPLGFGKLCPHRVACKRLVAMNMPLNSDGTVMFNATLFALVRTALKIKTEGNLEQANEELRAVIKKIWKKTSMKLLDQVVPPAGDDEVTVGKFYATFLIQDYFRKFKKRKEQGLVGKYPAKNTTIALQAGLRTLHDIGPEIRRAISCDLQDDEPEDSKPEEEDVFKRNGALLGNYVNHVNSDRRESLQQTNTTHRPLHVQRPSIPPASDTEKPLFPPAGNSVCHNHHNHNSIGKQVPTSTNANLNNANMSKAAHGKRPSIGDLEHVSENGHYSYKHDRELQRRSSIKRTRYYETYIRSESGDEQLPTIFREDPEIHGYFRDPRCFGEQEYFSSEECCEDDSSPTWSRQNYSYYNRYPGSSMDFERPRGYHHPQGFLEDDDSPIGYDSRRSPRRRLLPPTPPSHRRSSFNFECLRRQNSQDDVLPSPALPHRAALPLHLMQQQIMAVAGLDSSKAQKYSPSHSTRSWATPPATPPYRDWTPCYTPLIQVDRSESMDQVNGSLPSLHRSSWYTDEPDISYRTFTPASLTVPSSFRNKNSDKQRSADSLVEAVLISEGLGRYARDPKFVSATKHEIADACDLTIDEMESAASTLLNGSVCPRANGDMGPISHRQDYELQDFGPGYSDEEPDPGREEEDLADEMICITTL
Cav1.3 alpha1 subunit expressed in HEK293 cells, P27732 1-2203 (natural protein), sequence (P27732 whole entry): as above
Cav2.3 alpha1 subunit expressed in HEK293 cells, Q07652 1-2222 (natural protein), sequence (Q07652 whole entry): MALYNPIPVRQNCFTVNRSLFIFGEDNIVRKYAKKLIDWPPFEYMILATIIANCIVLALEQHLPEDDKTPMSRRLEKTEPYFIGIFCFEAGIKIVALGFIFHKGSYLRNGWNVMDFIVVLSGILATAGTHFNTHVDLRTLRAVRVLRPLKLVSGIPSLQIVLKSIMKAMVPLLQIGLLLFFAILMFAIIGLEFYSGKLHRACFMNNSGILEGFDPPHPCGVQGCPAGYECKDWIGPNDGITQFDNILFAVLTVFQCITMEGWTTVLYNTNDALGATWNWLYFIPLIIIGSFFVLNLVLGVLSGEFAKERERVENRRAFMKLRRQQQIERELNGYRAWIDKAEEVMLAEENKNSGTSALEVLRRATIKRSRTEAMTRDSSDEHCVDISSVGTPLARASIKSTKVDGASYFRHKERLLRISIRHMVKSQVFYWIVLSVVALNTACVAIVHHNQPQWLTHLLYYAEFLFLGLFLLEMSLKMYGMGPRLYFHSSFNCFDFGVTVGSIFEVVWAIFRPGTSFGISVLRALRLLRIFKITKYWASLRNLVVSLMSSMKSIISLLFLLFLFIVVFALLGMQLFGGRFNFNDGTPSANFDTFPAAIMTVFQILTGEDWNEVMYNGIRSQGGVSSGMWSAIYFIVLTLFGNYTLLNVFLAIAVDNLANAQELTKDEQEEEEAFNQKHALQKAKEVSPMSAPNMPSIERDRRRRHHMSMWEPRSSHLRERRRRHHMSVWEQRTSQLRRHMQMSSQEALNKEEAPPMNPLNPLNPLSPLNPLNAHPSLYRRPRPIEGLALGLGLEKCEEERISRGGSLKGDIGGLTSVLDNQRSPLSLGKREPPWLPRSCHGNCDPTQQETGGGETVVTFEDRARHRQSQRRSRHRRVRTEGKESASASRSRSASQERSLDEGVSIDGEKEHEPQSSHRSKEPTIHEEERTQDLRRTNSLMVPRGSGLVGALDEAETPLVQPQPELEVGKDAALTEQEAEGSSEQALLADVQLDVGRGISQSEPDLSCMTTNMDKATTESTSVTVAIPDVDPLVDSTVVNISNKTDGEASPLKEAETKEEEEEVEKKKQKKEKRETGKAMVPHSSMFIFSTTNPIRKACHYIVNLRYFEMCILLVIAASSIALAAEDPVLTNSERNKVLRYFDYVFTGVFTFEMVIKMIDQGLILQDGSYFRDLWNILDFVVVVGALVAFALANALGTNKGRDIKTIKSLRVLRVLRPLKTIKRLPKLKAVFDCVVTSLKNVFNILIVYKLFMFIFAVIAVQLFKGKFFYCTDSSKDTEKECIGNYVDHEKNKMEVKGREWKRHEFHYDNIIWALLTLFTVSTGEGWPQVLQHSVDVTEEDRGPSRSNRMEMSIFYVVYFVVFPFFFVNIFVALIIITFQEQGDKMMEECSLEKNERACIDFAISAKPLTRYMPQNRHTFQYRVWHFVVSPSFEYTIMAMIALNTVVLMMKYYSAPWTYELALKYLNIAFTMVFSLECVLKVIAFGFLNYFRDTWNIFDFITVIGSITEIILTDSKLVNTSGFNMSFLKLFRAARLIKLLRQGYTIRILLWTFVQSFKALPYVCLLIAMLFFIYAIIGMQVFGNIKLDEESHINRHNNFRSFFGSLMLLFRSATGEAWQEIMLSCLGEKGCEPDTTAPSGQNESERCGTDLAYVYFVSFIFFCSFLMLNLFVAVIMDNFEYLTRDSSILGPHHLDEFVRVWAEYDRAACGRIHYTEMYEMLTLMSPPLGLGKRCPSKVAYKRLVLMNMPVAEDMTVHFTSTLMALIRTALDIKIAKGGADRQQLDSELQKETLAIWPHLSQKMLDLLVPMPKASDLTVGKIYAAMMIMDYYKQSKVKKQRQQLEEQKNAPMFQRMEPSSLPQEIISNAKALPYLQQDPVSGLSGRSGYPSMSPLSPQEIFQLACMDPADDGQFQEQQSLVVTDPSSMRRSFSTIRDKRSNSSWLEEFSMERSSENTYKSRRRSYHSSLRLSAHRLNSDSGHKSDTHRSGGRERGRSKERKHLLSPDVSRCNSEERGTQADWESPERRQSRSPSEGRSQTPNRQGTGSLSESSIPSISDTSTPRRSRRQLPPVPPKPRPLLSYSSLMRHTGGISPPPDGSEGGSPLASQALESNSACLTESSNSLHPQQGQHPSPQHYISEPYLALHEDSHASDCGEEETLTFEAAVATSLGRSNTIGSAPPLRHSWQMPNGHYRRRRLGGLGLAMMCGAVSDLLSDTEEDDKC
Syn-3 expressed in HEK293 cells, sequence (Q08849 whole entry): as the sequence (Q08849 whole entry) above

For the substance “Cav1.3 alpha1 pore-forming subunit (endogenous, INS-1 832/13 cells), P27732 1-2203 (natural protein)”, in assay [1], the percent recovery of total lysate input, basal (0.8 mM glucose) was 1.9 to 2% and the percent recovery of total lysate input, stimulated (16.7 mM glucose + 10 nM GLP-1) worked out at 2%. Moreover, in assay [2], the percent recovery of total lysate input, basal (0.8 mM glucose) was determined as 1.9% and the percent recovery of total lysate input, stimulated (16.7 mM glucose + 10 nM GLP-1) turned out to be 15%.

As for “Cav1.3 alpha1 subunit expressed in HEK293 cells, P27732 1-2203 (natural protein)”, the percent recovery of total lysate input in assay [3] turned out to be 5.3%; in assay [4] it was 25.7%; in assay [5], 18.1%; in assay [6] it was 7.8%.

Take “Cav2.3 alpha1 pore-forming subunit (endogenous, INS-1 832/13 cells), Q07652 1-2222 (natural protein)”: in assay [1], the percent recovery of total lysate input, basal (0.8 mM glucose) amounted to 1.7% and the percent recovery of total lysate input, stimulated (16.7 mM glucose + 10 nM GLP-1) came out at 8.1%.

Take “Cav2.3 alpha1 subunit expressed in HEK293 cells, Q07652 1-2222 (natural protein)”: the percent recovery of total lysate input in assay [3] stood at 20.1%; in assay [4], 8.4%; in assay [5], 2.2%; in assay [6], 6.1%.

These data come from publication PMC4743851.
